The record followed here is PMC7041689.

One test has as its target CyPet-XCTK2 (Xenopus) (UniProt P79955). As to the kind of experiment: FRET or BRET. In general terms: In BRET a luciferase serves as donor, and the signal depends on an acceptor being close.
The target of test [1] is 6His-YPet-XCTK2-Tail (Xenopus) (UniProt P79955). As to the kind of experiment: co-sedimentation.
The next test concerns the target YPet-XCTK2 (Xenopus) (UniProt P79955). As to the kind of experiment: FRET or BRET.
The target in the next test is microtubules. As to the kind of experiment: co-sedimentation.

With 6His-importin α-YPet (natural protein), the fold decrease of Kd with importin β against without importin β with CyPet-XCTK2 (Xenopus) is 5 fold.

In test [1], importin α-6His (natural protein) gave a percent decrease of the amount of YPet-XCTK2-Tail bound to MTs (1× importin α/β) of 46% and a percent decrease of the amount of YPet-XCTK2-Tail bound to MTs (4× importin α/β) of 53%.

Consider importin α-CyPet (natural protein), for which the mean line scan CyPet lifetime (importin α-CyPet + Ran without YPet 1.68) with YPet-XCTK2 (Xenopus) turned out to be 1.55 ns.

B1: 6His-YPet-XCTK2-Tail (domain or fragment)
chain: DSTDKKVQVASRLPVPPKRKYVSNDENQEQMQRKRLRSSLESELPAVRVAASIATSKPRAAPVAALPKPQVIGRQSLAVMRPKNSGPGITSTSFSGKTKVSSSVTQPAAIGAEKKKRAA
Consider B1, for which, in the test with microtubules, the fold increase of Kd with 4× importin α/β against no importin α/β turned out to be 10 fold.
